Experimental data as given in paper PMC9482650, “Quantitative fragmentomics allow affinity mapping of interactomes” (Nature Communications, 2022).

T1: LIN7C, Q9NUP9
T1 sequence (Q9NUP9 88-185, limits assumed, looked up): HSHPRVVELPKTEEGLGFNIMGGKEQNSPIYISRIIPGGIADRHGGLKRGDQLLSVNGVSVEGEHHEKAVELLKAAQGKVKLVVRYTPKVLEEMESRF

T2: GRIP1_4, Q9Y3R0
T2 sequence (Q9Y3R0 467-571, limits assumed, looked up): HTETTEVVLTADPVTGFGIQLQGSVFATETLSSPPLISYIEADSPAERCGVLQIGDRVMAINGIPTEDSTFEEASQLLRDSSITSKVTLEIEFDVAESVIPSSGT

T3: CARD11, Q9BXL7
T3 sequence (Q9BXL7 662-765, limits assumed, looked up): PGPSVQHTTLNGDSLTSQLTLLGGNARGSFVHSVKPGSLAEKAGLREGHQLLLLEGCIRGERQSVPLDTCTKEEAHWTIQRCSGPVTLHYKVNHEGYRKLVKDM

T4: SHANK1, Q9Y566
T4 sequence (Q9Y566 658-767, limits assumed, looked up): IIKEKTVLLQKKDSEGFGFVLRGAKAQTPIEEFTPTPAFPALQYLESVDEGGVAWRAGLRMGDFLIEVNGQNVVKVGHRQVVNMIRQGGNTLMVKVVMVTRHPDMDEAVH

T5: SIPA1L2, Q9P2F8
T5 sequence (Q9P2F8 945-1036, limits assumed, looked up): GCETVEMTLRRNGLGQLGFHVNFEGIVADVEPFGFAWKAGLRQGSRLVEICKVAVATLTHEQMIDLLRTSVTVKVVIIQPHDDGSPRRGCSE

T6: RHPN1, Q8TCX5
T6 sequence (Q8TCX5 508-602, limits assumed, looked up): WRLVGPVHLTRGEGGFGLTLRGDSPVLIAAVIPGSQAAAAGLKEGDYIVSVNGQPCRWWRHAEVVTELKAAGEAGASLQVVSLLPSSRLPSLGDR

T7: PARD3B_1, Q8TEW8
T7 sequence (Q8TEW8 196-299, limits assumed, looked up): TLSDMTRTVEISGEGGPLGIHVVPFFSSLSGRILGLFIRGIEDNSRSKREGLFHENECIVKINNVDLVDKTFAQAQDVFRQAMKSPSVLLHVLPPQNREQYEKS

T8: MPDZ_12, O75970
T8 sequence (O75970 1857-1958, limits assumed, looked up): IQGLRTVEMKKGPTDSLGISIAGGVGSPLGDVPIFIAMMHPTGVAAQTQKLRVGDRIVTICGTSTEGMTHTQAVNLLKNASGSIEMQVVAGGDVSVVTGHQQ

B1: KIT, P10721 (peptide)
chain: SQPLLVHDDV
B2: JAM1, Q9Y624 (peptide)
chain: EFKQTSSFLV

molecular target: MAGI2_6, Q86UL8; assay: holdup assay; design: key: below the threshold = too weak to quantify, mostly under pKd 3.1 to 4; details: plain residues with an end cap or a label only (N-terminal biotin on a linker: ado-ado)
Sequence (Q86UL8 1141-1229): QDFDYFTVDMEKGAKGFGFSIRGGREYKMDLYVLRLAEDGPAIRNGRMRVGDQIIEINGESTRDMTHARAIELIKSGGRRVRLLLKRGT

| pKd | Binder |
| --- | --- |
| below the threshold | B1 |
| below the threshold | B2 |

molecular target: LNX1_3, Q8TBB1; assay: holdup assay; design: key: below the threshold = too weak to quantify, mostly under pKd 3.1 to 4; details: plain residues with an end cap or a label only (N-terminal biotin on a linker: ado-ado)
Sequence (Q8TBB1 500-596): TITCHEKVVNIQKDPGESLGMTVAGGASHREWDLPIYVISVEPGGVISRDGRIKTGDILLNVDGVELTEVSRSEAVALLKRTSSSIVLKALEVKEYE

| pKd | Binder |
| --- | --- |
| below the threshold | B1 |
| below the threshold | B2 |

molecular target: NHERF2_2, Q15599; assay: holdup assay; design: key: below the threshold = too weak to quantify, mostly under pKd 3.1 to 4; details: plain residues with an end cap or a label only (N-terminal biotin on a linker: ado-ado)
Sequence (Q15599 142-238): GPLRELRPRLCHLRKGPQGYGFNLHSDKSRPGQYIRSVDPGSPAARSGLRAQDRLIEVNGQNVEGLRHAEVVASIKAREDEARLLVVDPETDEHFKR

| pKd | Binder |
| --- | --- |
| below the threshold | B1 |
| below the threshold | B2 |

molecular target: DLG1_3, Q12959; assay: holdup assay; design: key: below the threshold = too weak to quantify, mostly under pKd 3.1 to 4; details: plain residues with an end cap or a label only (N-terminal biotin on a linker: ado-ado)
Sequence (Q12959 457-571): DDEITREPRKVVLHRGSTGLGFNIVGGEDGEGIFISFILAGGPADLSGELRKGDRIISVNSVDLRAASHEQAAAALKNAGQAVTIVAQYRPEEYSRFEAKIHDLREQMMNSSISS

| pKd | Binder |
| --- | --- |
| below the threshold | B1 |
| below the threshold | B2 |

molecular target: PTPN3, P26045; assay: holdup assay; design: key: below the threshold = too weak to quantify, mostly under pKd 3.1 to 4; details: plain residues with an end cap or a label only (N-terminal biotin on a linker: ado-ado)
Sequence (P26045 505-587): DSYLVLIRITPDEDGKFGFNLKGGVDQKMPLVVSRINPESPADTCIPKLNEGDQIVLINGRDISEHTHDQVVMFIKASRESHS

| pKd | Binder |
| --- | --- |
| below the threshold | B1 |
| below the threshold | B2 |

molecular target: Inadl_6, Q8NI35; assay: holdup assay; design: key: below the threshold = too weak to quantify, mostly under pKd 3.1 to 4; details: plain residues with an end cap or a label only (N-terminal biotin on a linker: ado-ado)
Sequence (Q8NI35 1058-1167): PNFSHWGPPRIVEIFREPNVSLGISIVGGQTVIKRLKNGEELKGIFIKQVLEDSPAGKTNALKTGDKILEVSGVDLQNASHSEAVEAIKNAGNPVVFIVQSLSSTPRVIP

| pKd | Binder |
| --- | --- |
| below the threshold | B1 |
| below the threshold | B2 |

molecular target: T1, LIN7C, Q9NUP9; assay: holdup assay; design: key: below the threshold = too weak to quantify, mostly under pKd 3.1 to 4; details: plain residues with an end cap or a label only (N-terminal biotin on a linker: ado-ado)

| pKd | Binder |
| --- | --- |
| below the threshold | B1 |
| below the threshold | B2 |

molecular target: GRIP2_4, Q9C0E4; assay: holdup assay; design: key: below the threshold = too weak to quantify, mostly under pKd 3.1 to 4; details: plain residues with an end cap or a label only (N-terminal biotin on a linker: ado-ado)
Sequence (Q9C0E4 446-548): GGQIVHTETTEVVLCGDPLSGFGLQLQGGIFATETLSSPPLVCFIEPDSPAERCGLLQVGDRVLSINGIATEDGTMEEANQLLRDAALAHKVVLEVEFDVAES

| pKd | Binder |
| --- | --- |
| below the threshold | B1 |
| below the threshold | B2 |

molecular target: SNX27, Q96L92; assay: holdup assay; design: key: below the threshold = too weak to quantify, mostly under pKd 3.1 to 4; details: plain residues with an end cap or a label only (N-terminal biotin on a linker: ado-ado)

| pKd | Binder |
| --- | --- |
| below the threshold | B1 |
| below the threshold | B2 |

molecular target: NHERF4_1, Q86UT5-2; assay: holdup assay; design: key: below the threshold = too weak to quantify, mostly under pKd 3.1 to 4; details: plain residues with an end cap or a label only (N-terminal biotin on a linker: ado-ado)
Sequence (Q86UT5 other isoform, or with tags, fused parts or gaps): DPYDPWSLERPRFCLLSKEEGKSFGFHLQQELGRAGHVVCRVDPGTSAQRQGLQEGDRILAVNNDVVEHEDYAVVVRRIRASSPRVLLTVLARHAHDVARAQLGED

| pKd | Binder |
| --- | --- |
| below the threshold | B1 |
| 3.84 | B2 |

molecular target: FRMPD4, Q14CM0; assay: holdup assay; design: key: below the threshold = too weak to quantify, mostly under pKd 3.1 to 4; details: plain residues with an end cap or a label only (N-terminal biotin on a linker: ado-ado)
Sequence (Q14CM0 67-160): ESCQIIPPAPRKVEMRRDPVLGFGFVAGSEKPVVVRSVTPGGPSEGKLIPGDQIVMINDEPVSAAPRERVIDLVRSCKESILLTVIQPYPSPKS

| pKd | Binder |
| --- | --- |
| below the threshold | B1 |
| 3.76 | B2 |

molecular target: T2, GRIP1_4, Q9Y3R0; assay: holdup assay; design: key: below the threshold = too weak to quantify, mostly under pKd 3.1 to 4; details: plain residues with an end cap or a label only (N-terminal biotin on a linker: ado-ado)

| pKd | Binder |
| --- | --- |
| below the threshold | B1 |
| below the threshold | B2 |

molecular target: SCRIB_3, Q14160; assay: holdup assay; design: key: below the threshold = too weak to quantify, mostly under pKd 3.1 to 4; details: plain residues with an end cap or a label only (N-terminal biotin on a linker: ado-ado)
Sequence (Q14160 999-1103): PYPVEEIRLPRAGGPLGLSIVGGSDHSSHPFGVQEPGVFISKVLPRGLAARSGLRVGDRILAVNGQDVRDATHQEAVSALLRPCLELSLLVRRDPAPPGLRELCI

| pKd | Binder |
| --- | --- |
| below the threshold | B1 |
| below the threshold | B2 |

molecular target: FRMPD2_2, Q68DX3; assay: holdup assay; design: key: below the threshold = too weak to quantify, mostly under pKd 3.1 to 4; details: plain residues with an end cap or a label only (N-terminal biotin on a linker: ado-ado)
Sequence (Q68DX3 944-1038): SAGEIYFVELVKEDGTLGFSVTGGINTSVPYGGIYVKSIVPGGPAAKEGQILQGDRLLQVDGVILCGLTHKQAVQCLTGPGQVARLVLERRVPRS

| pKd | Binder |
| --- | --- |
| below the threshold | B1 |
| below the threshold | B2 |

molecular target: T3, CARD11, Q9BXL7; assay: holdup assay; design: key: below the threshold = too weak to quantify, mostly under pKd 3.1 to 4; details: plain residues with an end cap or a label only (N-terminal biotin on a linker: ado-ado)

| pKd | Binder |
| --- | --- |
| below the threshold | B1 |
| below the threshold | B2 |

molecular target: Inadl_1, Q8NI35; assay: holdup assay; design: key: below the threshold = too weak to quantify, mostly under pKd 3.1 to 4; details: plain residues with an end cap or a label only (N-terminal biotin on a linker: ado-ado)
Sequence (Q8NI35 113-229): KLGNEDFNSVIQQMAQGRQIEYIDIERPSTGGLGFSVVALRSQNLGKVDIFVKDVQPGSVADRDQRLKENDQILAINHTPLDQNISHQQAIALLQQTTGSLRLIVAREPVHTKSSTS

| pKd | Binder |
| --- | --- |
| below the threshold | B1 |
| below the threshold | B2 |

molecular target: HTRA2, O43464; assay: holdup assay; design: key: below the threshold = too weak to quantify, mostly under pKd 3.1 to 4; details: plain residues with an end cap or a label only (N-terminal biotin on a linker: ado-ado)
Sequence (O43464 355-458): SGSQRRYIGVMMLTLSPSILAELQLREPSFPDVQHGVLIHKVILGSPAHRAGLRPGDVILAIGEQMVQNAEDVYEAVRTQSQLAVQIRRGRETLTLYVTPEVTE

| pKd | Binder |
| --- | --- |
| below the threshold | B1 |
| 3.78 | B2 |

molecular target: T4, SHANK1, Q9Y566; assay: holdup assay; design: key: below the threshold = too weak to quantify, mostly under pKd 3.1 to 4; details: plain residues with an end cap or a label only (N-terminal biotin on a linker: ado-ado)

| pKd | Binder |
| --- | --- |
| below the threshold | B1 |
| below the threshold | B2 |

molecular target: GORASP1, Q9BQQ3; assay: holdup assay; design: key: below the threshold = too weak to quantify, mostly under pKd 3.1 to 4; details: plain residues with an end cap or a label only (N-terminal biotin on a linker: ado-ado)
Sequence (Q9BQQ3 1-208): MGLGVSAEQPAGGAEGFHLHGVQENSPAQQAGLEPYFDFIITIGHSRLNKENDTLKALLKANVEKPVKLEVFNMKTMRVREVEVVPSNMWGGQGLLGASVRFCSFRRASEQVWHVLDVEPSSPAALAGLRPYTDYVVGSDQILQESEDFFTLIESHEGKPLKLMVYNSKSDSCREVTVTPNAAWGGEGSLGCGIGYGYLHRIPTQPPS

| pKd | Binder |
| --- | --- |
| below the threshold | B1 |
| 4.37 | B2 |

molecular target: T5, SIPA1L2, Q9P2F8; assay: holdup assay; design: key: below the threshold = too weak to quantify, mostly under pKd 3.1 to 4; details: plain residues with an end cap or a label only (N-terminal biotin on a linker: ado-ado)

| pKd | Binder |
| --- | --- |
| below the threshold | B1 |
| below the threshold | B2 |

molecular target: T6, RHPN1, Q8TCX5; assay: holdup assay; design: key: below the threshold = too weak to quantify, mostly under pKd 3.1 to 4; details: plain residues with an end cap or a label only (N-terminal biotin on a linker: ado-ado)

| pKd | Binder |
| --- | --- |
| below the threshold | B1 |
| below the threshold | B2 |

molecular target: T7, PARD3B_1, Q8TEW8; assay: holdup assay; design: key: below the threshold = too weak to quantify, mostly under pKd 3.1 to 4; details: plain residues with an end cap or a label only (N-terminal biotin on a linker: ado-ado)

| pKd | Binder |
| --- | --- |
| below the threshold | B1 |
| 4.72 | B2 |

molecular target: GRID2IP_2, A4D2P6; assay: holdup assay; design: key: below the threshold = too weak to quantify, mostly under pKd 3.1 to 4; details: plain residues with an end cap or a label only (N-terminal biotin on a linker: ado-ado)
Sequence (A4D2P6 272-370): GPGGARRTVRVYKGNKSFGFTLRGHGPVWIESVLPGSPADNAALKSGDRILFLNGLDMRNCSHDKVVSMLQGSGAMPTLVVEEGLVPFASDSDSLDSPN

| pKd | Binder |
| --- | --- |
| below the threshold | B1 |
| below the threshold | B2 |

molecular target: NHERF4_4, Q86UT5; assay: holdup assay; design: key: below the threshold = too weak to quantify, mostly under pKd 3.1 to 4; details: plain residues with an end cap or a label only (N-terminal biotin on a linker: ado-ado)
Sequence (Q86UT5 464-550): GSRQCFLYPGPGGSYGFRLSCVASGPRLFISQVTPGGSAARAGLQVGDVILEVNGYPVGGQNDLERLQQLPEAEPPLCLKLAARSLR

| pKd | Binder |
| --- | --- |
| below the threshold | B1 |
| below the threshold | B2 |

molecular target: Inadl_2, Q8NI35; assay: holdup assay; design: key: below the threshold = too weak to quantify, mostly under pKd 3.1 to 4; details: plain residues with an end cap or a label only (N-terminal biotin on a linker: ado-ado)
Sequence (Q8NI35 238-335): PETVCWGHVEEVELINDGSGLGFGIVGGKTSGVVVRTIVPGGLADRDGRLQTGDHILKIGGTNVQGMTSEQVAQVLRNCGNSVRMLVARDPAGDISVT

| pKd | Binder |
| --- | --- |
| below the threshold | B1 |
| 3.56 | B2 |

molecular target: T8, MPDZ_12, O75970; assay: holdup assay; design: key: below the threshold = too weak to quantify, mostly under pKd 3.1 to 4; details: plain residues with an end cap or a label only (N-terminal biotin on a linker: ado-ado)

| pKd | Binder |
| --- | --- |
| below the threshold | B1 |
| below the threshold | B2 |

molecular target: MAGI2_2, Q86UL8; assay: holdup assay; design: key: below the threshold = too weak to quantify, mostly under pKd 3.1 to 4; details: plain residues with an end cap or a label only (N-terminal biotin on a linker: ado-ado)
Sequence (Q86UL8 410-522): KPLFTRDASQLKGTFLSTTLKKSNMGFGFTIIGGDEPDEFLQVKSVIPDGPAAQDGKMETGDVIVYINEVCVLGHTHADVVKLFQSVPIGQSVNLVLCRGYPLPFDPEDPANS

| pKd | Binder |
| --- | --- |
| below the threshold | B1 |
| 3.72 | B2 |

molecular target: LDB3, O75112; assay: holdup assay; design: key: below the threshold = too weak to quantify, mostly under pKd 3.1 to 4; details: plain residues with an end cap or a label only (N-terminal biotin on a linker: ado-ado)
Sequence (O75112 1-94): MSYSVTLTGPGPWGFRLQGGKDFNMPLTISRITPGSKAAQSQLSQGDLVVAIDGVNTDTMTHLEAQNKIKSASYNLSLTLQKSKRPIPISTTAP

| pKd | Binder |
| --- | --- |
| below the threshold | B1 |
| below the threshold | B2 |

molecular target: DLG4_1, P78352; assay: holdup assay; design: key: below the threshold = too weak to quantify, mostly under pKd 3.1 to 4; details: plain residues with an end cap or a label only (N-terminal biotin on a linker: ado-ado)
Sequence (P78352 62-152): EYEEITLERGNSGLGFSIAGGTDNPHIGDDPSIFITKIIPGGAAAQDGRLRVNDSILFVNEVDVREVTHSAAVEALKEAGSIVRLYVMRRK

| pKd | Binder |
| --- | --- |
| below the threshold | B1 |
| below the threshold | B2 |
